Measurements published in article PMC10397247.
Where two headings read alike, the source gives them in different places.

Assays:
Experiment in all cases: two-hybrid library CCmax;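 also: natural log of median RNA to DNA barcode read ratio; higher means stronger binding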
4H347-AA = biological target: T1, 4H347-AA; settings: mean of both orientations
T1 chain: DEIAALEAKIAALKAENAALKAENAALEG

4H3438-AA = biological target: T2, 4H3438-AA; settings: mean of both orientations
T2 chain: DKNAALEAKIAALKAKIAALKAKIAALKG

4H3001-AA = biological target: T3, 4H3001-AA; settings: mean of both orientations
T3 chain: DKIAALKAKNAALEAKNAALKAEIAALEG

4H56-AA = biological target: T4, 4H56-AA
T4 chain: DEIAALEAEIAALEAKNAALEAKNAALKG

4H_GCN4 = biological target: 4H_GCN4
4H2774-AA = biological target: T5, 4H2774-AA; settings: mean of both orientations
T5 chain: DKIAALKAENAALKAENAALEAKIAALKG

4H3015-AA = biological target: T6, 4H3015-AA; settings: mean of both orientations
T6 chain: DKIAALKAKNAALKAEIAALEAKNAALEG

4H_BCR = biological target: T7, 4H_BCR; settings: mean of both orientations
T7 chain: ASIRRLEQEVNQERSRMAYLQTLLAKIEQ

4H2732-AA = biological target: T8, 4H2732-AA
T8 chain: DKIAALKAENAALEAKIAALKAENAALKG

4H406-AA = biological target: T9, 4H406-AA; settings: mean of both orientations
T9 chain: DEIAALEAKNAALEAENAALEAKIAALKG

4H3073-AA = biological target: T10, 4H3073-AA; settings: mean of both orientations
T10 chain: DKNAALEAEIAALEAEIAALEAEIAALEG

4H452-AA = biological target: T11, 4H452-AA; settings: mean of both orientations
T11 chain: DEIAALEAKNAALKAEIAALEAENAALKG

GCN2_T = biological target: GCN2_T
4H2931-AA = biological target: T12, 4H2931-AA; settings: mean of both orientations
T12 chain: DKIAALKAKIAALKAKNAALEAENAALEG

4H_APH = biological target: T13, 4H_APH
T13 chain: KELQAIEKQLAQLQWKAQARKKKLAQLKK

4H2617-AA = biological target: T14, 4H2617-AA; settings: mean of both orientations
T14 chain: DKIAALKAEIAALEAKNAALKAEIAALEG

4H3343-AA = biological target: T15, 4H3343-AA; settings: mean of both orientations
T15 chain: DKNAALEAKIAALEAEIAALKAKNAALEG

4H429-AA = biological target: T16, 4H429-AA; settings: mean of both orientations
T16 chain: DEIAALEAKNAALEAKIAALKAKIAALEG

4H3427-AA = biological target: T17, 4H3427-AA; settings: mean of both orientations
T17 chain: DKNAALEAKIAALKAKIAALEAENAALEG

4H2592-AA = biological target: T18, 4H2592-AA; settings: mean of both orientations
T18 chain: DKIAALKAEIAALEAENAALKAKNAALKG

4H717-AA = biological target: T19, 4H717-AA; settings: mean of both orientations
T19 chain: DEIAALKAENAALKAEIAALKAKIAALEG

4H342-AA = biological target: T20, 4H342-AA; settings: mean of both orientations
T20 chain: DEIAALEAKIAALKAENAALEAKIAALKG

4H48-AA = biological target: T21, 4H48-AA; settings: mean of both orientations
T21 chain: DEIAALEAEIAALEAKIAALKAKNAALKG

4H678-AA = biological target: T22, 4H678-AA; settings: mean of both orientations
T22 chain: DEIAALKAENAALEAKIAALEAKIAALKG

4H2949-AA = biological target: T23, 4H2949-AA; settings: mean of both orientations
T23 chain: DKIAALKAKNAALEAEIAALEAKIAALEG

4H2883-AA = biological target: T24, 4H2883-AA; settings: mean of both orientations
T24 chain: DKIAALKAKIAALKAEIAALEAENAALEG

4H249-AA = biological target: T25, 4H249-AA; settings: mean of both orientations
T25 chain: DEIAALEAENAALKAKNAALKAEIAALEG

4H993-AA = biological target: T26, 4H993-AA; settings: mean of both orientations
T26 chain: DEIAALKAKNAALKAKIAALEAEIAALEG

4H2944-AA = biological target: T27, 4H2944-AA; settings: mean of both orientations
T27 chain: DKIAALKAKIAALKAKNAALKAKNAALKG

4H3655-AA = biological target: T28, 4H3655-AA; settings: mean of both orientations
T28 chain: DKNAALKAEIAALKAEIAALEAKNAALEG

4H2575-AA = biological target: T29, 4H2575-AA; settings: mean of both orientations
T29 chain: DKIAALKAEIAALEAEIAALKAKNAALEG

4H2466-AA = biological target: T30, 4H2466-AA
T30 chain: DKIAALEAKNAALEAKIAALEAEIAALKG

4H780-AA = biological target: T31, 4H780-AA; settings: mean of both orientations
T31 chain: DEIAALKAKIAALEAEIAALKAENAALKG

4H2729-AA = biological target: T32, 4H2729-AA; settings: mean of both orientations
T32 chain: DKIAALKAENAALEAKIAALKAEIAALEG

4H3606-AA = biological target: T33, 4H3606-AA; settings: mean of both orientations
T33 chain: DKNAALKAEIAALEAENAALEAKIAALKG

4H454-AA = biological target: T34, 4H454-AA; settings: mean of both orientations
T34 chain: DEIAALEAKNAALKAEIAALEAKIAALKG

4H2837-AA = biological target: T35, 4H2837-AA; settings: mean of both orientations
T35 chain: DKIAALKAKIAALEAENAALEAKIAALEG

4H3112-AA = biological target: T36, 4H3112-AA; settings: mean of both orientations
T36 chain: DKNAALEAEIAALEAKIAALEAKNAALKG

4H3627-AA = biological target: T37, 4H3627-AA
T37 chain: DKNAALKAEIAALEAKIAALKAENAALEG

4H2642-AA = biological target: T38, 4H2642-AA; settings: mean of both orientations
T38 chain: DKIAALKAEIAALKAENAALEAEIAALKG

4H2754-AA = biological target: T39, 4H2754-AA
T39 chain: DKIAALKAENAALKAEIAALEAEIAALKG

4H3844-AA = biological target: T40, 4H3844-AA; settings: mean of both orientations
T40 chain: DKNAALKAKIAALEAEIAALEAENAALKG

4H605-AA = biological target: T41, 4H605-AA; settings: mean of both orientations
T41 chain: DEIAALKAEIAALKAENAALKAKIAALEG

4H3921-AA = biological target: T42, 4H3921-AA
T42 chain: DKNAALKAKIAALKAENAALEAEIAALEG

4H881-AA = biological target: T43, 4H881-AA; settings: mean of both orientations
T43 chain: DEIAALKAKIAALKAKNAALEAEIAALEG

4H794-AA = biological target: T44, 4H794-AA; settings: mean of both orientations
T44 chain: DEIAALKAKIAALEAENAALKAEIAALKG

4H906-AA = biological target: T45, 4H906-AA; settings: mean of both orientations
T45 chain: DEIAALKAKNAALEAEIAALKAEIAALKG

4H335-AA = biological target: T46, 4H335-AA; settings: mean of both orientations
T46 chain: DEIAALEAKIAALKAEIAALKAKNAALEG

4H317-AA = biological target: T47, 4H317-AA; settings: mean of both orientations
T47 chain: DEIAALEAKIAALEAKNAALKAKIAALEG

4H566-AA = biological target: T48, 4H566-AA; settings: mean of both orientations
T48 chain: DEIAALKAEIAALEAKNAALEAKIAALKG

4H2505-AA = biological target: T49, 4H2505-AA; settings: mean of both orientations
T49 chain: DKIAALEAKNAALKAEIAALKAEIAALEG

4H_GCN4, sequence (chain, as listed by the source): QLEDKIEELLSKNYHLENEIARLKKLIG

DKIAALKAENAALEAKIAALKAENAALKG [4H2732-AA]
interaction score (4H347-AA): -1.49
interaction score (4H3438-AA): -1.2
interaction score (4H3001-AA): -1.46
interaction score (4H56-AA; mean of both orientations): -1.58
interaction score (4H_GCN4; mean of both orientations): -1.08
interaction score (4H2774-AA): -1.29
interaction score (4H3015-AA): 1.14
interaction score (4H_BCR): -2.17
interaction score (4H2732-AA): 0.324
interaction score (4H406-AA): -1.22
interaction score (4H3073-AA): 0.0758
interaction score (4H452-AA): 2.3
interaction score (GCN2_T): -1.15
interaction score (4H2931-AA): -1.81
interaction score (4H_APH; mean of both orientations): -1.5

DKIAALEAKNAALEAKIAALEAEIAALKG [4H2466-AA]
interaction score (4H2617-AA): -1.65
interaction score (4H3343-AA): -1.23
interaction score (4H347-AA): -2.11
interaction score (4H3438-AA): -0.928
interaction score (4H429-AA): -0.101
interaction score (4H3427-AA): -1.39
interaction score (4H2592-AA): -1.71
interaction score (4H717-AA): -1.06
interaction score (4H342-AA): -0.478
interaction score (4H48-AA): -1.11
interaction score (4H678-AA): -0.158
interaction score (4H2949-AA): -0.713
interaction score (4H2883-AA): -1.56
interaction score (4H3001-AA): -1.55
interaction score (4H249-AA): -1.42
interaction score (4H993-AA): 0.55
interaction score (4H56-AA): -2.04
interaction score (4H_GCN4): -1.67
interaction score (4H2944-AA): -1.57
interaction score (4H2774-AA): -1.69
interaction score (4H3655-AA): -1.35
interaction score (4H2575-AA): -1.2
interaction score (4H3015-AA): -1.65
interaction score (4H2466-AA): 1.31
interaction score (4H780-AA): -1.2
interaction score (4H2729-AA): 0.493
interaction score (4H3606-AA): -1.47
interaction score (4H454-AA): 0.993
interaction score (4H_BCR): -2.46
interaction score (4H2837-AA): -1.28
interaction score (4H2732-AA; mean of both orientations): -1.42
interaction score (4H3112-AA): -1.92
interaction score (4H3627-AA): -1.86
interaction score (4H2642-AA): -0.362
interaction score (4H406-AA): -1.25
interaction score (4H2754-AA): -0.538
interaction score (4H3073-AA): -1.43
interaction score (4H452-AA): -1.37
interaction score (4H3844-AA): -1.82
interaction score (GCN2_T; mean of both orientations): -1
interaction score (4H605-AA): -1.38
interaction score (4H3921-AA): -1.23
interaction score (4H881-AA): -2.04
interaction score (4H794-AA): -1.43
interaction score (4H906-AA): -1.22
interaction score (4H335-AA): -1.59
interaction score (4H317-AA): -1.82
interaction score (4H566-AA): -1.51
interaction score (4H2931-AA): -1.81
interaction score (4H_APH): -0.895
interaction score (4H2505-AA): -0.434
